From US20240368267A1 (KODIAK SCIENCES, published 2024)
Residue numbers refer to the chain shown, from its start. Numbers in names are those of the source.

B1: anti-IL-6 antibody, heavy chain G66D / light chain WT (antibody, human IgG1, V domains shown)
VH: EVQLVESGGGLVQPGGSLRLSCAASGFTFSPFAMSWVRQAPGKGLEWVAKISPGGSWTYYSDTVTDRFTFSLDTSKSTAYLQMNSLRAEDTAVYYCARQLWGYYALDIWGQGTLVTVSS
VL: DIQLTQSPSSLSASVGDRVTITCSASISVSYMYWYQQKPGKAPKLLIYDMSNLASGVPSRFSGSGSGTDFTLTISSLQPEDFATYYCMQWSGYPYTFGQGTKVEIK
notes: Derived as m2; Engineered human IgG1
B2: anti-IL-6 antibody, heavy chain S35H, G66D / light chain WT (antibody, human IgG1, V domains shown)
VH: B1 VH with S35H
VL: B1 VL
notes: as for B1
B3: anti-IL-6 antibody, heavy chain T63E, G66D / light chain WT (antibody, human IgG1, V domains shown)
VH: B1 VH with T63E
VL: B1 VL
notes: as for B1
B4: anti-IL-6 antibody, heavy chain T65S, G66D / light chain WT (antibody, human IgG1, V domains shown)
VH: B1 VH with T65S
VL: B1 VL
notes: as for B1
B5: anti-IL-6 antibody, heavy chain T63W, G66D / light chain WT (antibody, human IgG1, V domains shown)
VH: B1 VH with T63W
VL: B1 VL
notes: as for B1
B6: anti-IL-6 antibody, heavy chain T65L, G66D / light chain WT (antibody, human IgG1, V domains shown)
VH: B1 VH with T65L
VL: B1 VL
notes: as for B1
B7: anti-IL-6 antibody, heavy chain T63V, G66D / light chain WT (antibody, human IgG1, V domains shown)
VH: B1 VH with T63V
VL: B1 VL
notes: as for B1
B8: anti-IL-6 antibody, heavy chain T65D, G66D / light chain WT (antibody, human IgG1, V domains shown)
VH: B1 VH with T65D
VL: B1 VL
notes: as for B1
B9: anti-IL-6 antibody, heavy chain T65E, G66D / light chain WT (antibody, human IgG1, V domains shown)
VH: B1 VH with T65E
VL: B1 VL
notes: as for B1
B10: anti-IL-6 antibody, heavy chain T65V, G66D / light chain WT (antibody, human IgG1, V domains shown)
VH: B1 VH with T65V
VL: B1 VL
notes: as for B1
B11: anti-IL-6 antibody, heavy chain T65K, G66D / light chain WT (antibody, human IgG1, V domains shown)
VH: B1 VH with T65K
VL: B1 VL
notes: as for B1
B12: anti-IL-6 antibody, heavy chain T63L, G66D / light chain WT (antibody, human IgG1, V domains shown)
VH: B1 VH with T63L
VL: B1 VL
notes: as for B1
B13: anti-IL-6 antibody, heavy chain T65G, G66D / light chain WT (antibody, human IgG1, V domains shown)
VH: B1 VH with T65G
VL: B1 VL
notes: as for B1
B14: anti-IL-6 antibody, heavy chain T63P, G66D / light chain WT (antibody, human IgG1, V domains shown)
VH: B1 VH with T63P
VL: B1 VL
notes: as for B1
B15: anti-IL-6 antibody, heavy chain T63R, G66D / light chain WT (antibody, human IgG1, V domains shown)
VH: B1 VH with T63R
VL: B1 VL
notes: as for B1
B16: anti-IL-6 antibody, heavy chain T63I, G66D / light chain WT (antibody, human IgG1, V domains shown)
VH: B1 VH with T63I
VL: B1 VL
notes: as for B1
B17: anti-IL-6 antibody, heavy chain T65H, G66D / light chain WT (antibody, human IgG1, V domains shown)
VH: B1 VH with T65H
VL: B1 VL
notes: as for B1
B18: anti-IL-6 antibody, heavy chain T65F, G66D / light chain WT (antibody, human IgG1, V domains shown)
VH: B1 VH with T65F
VL: B1 VL
notes: as for B1
B19: anti-IL-6 antibody, heavy chain T65P, G66D / light chain WT (antibody, human IgG1, V domains shown)
VH: B1 VH with T65P
VL: B1 VL
notes: as for B1
B20: anti-IL-6 antibody, heavy chain T65W, G66D / light chain WT (antibody, human IgG1, V domains shown)
VH: B1 VH with T65W
VL: B1 VL
notes: as for B1
B21: anti-IL-6 antibody, heavy chain T63S, G66D / light chain WT (antibody, human IgG1, V domains shown)
VH: B1 VH with T63S
VL: B1 VL
notes: as for B1
B22: anti-IL-6 antibody, heavy chain T65R, G66D / light chain WT (antibody, human IgG1, V domains shown)
VH: B1 VH with T65R
VL: B1 VL
notes: as for B1
B23: anti-IL-6 antibody, heavy chain T63Y, G66D / light chain WT (antibody, human IgG1, V domains shown)
VH: B1 VH with T63Y
VL: B1 VL
notes: as for B1
B24: anti-IL-6 antibody, heavy chain T63H, G66D / light chain WT (antibody, human IgG1, V domains shown)
VH: B1 VH with T63H
VL: B1 VL
notes: as for B1
B25: anti-IL-6 antibody, heavy chain T63G, G66D / light chain WT (antibody, human IgG1, V domains shown)
VH: B1 VH with T63G
VL: B1 VL
notes: as for B1
B26: anti-IL-6 antibody, heavy chain T65A, G66D / light chain WT (antibody, human IgG1, V domains shown)
VH: B1 VH with T65A
VL: B1 VL
notes: as for B1
B27: anti-IL-6 antibody, heavy chain T65Y, G66D / light chain WT (antibody, human IgG1, V domains shown)
VH: B1 VH with T65Y
VL: B1 VL
notes: as for B1

What follows are binders tested against T1, human IL-6 (human, UniProt P05231 30-212) (assay: SPR (Biacore T200), purified antibody captured on Protein A, IL-6 flowed over, 37 C).
T1 construct: also called interleukin-6
T1 sequence (P05231 30-212 limits assumed): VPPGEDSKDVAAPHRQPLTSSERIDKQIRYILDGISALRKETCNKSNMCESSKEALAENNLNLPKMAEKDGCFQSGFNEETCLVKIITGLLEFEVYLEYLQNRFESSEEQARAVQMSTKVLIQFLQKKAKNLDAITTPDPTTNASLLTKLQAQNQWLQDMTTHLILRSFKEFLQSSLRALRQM
Experimental: (§1) Antibodies were captured on a Protein A chip (GE) by injecting 1:20 cell supernatant dilutions at 10 μL/min for 60 seconds. […] The sensor chip was regenerated by a 60 seconds injection of 10 mM Glycine pH 1.7 at the flow rate of […]. […] For this setup, 1 μg/mL of purified antibody was injected over a Protein A chip at 10 μL/min for 25 seconds. […] The sensor chip was regenerated by a 60 seconds injection of 10 mM Glycine pH 1.7 at flow rate of 50 μL/min. Data analysis for supernatant and purified samples were performed using BIAevaluation software (GE). All sensorgrams were double reference subtracted and fit using a 1:1 Langmuir binding model.

Kd [pM] | koff [s⁻¹] | kon [M⁻¹ s⁻¹] | Binder
113 | 0.000178 | 1.57e+06 | B1
105 | 0.000185 | 1.77e+06 | B2
147 | 0.000252 | 1.72e+06 | B3

The binders below were run against T1, human IL-6 (assay: SPR (Biacore T200), antibody from cell supernatant captured on Protein A, IL-6 flowed over, 37 C).
Experimental: Those four positions were selected based on their tolerance for mutations as observed in bacterial and mammalian screens. […] These cultures were centrifuged and supernatants containing secreted antibodies were harvested and diluted in HBS-EP+ running buffer (1:20 ratio).
as §1

Kd [pM] | koff [s⁻¹] | kon [M⁻¹ s⁻¹] | Binder
215 | 0.000392 | 1.83e+06 | B1
210 | 0.000383 | 1.82e+06 | B4
251 | 0.000427 | 1.7e+06 | B5
136 | 0.000397 | 2.92e+06 | B2
212 | 0.000375 | 1.77e+06 | B6
217 | 0.000399 | 1.84e+06 | B7
178 | 0.000464 | 2.61e+06 | B3
203 | 0.000442 | 2.18e+06 | B8
194 | 0.000427 | 2.2e+06 | B9
175 | 0.000504 | 2.88e+06 | B10
262 | 0.000412 | 1.57e+06 | B11
210 | 0.000363 | 1.73e+06 | B12
123 | 0.000218 | 1.77e+06 | B13
210 | 0.000436 | 2.08e+06 | B14
173 | 0.00046 | 2.66e+06 | B15
211 | 0.000373 | 1.77e+06 | B16
219 | 0.000356 | 1.63e+06 | B17
223 | 0.000348 | 1.56e+06 | B18
369 | 0.000568 | 1.54e+06 | B19
226 | 0.00037 | 1.64e+06 | B20
184 | 0.000464 | 2.52e+06 | B21
222 | 0.000444 | 2e+06 | B22
210 | 0.000383 | 1.82e+06 | B23
213 | 0.00042 | 1.98e+06 | B24
213 | 0.000397 | 1.86e+06 | B25
222 | 0.000364 | 1.64e+06 | B26
224 | 0.000361 | 1.61e+06 | B27
